The source of these data is article PMC11294680.

For this test, the target named is human BKCa channel α-subunit (hSlo1), residues 1-1,114 (human). Nature of the test: cryo-EM structure; purified tetrameric channel (5.5 mg/ml, 44 μM) in 20 mM Tris-HCl pH 8.0, 450 mM KCl, 10 mM CaCl2, 10 mM MgCl2, 0.01% glyco-diosgenin, POPE/POPC/POPA, mixed with 1 mM CTIBD on ice for 30 min; C1 and C4 symmetry.

“human BKCa channel α-subunit (hSlo1), residues 1-1,114 (natural protein)” yielded a stoichiometry N of 4.
